Km, kcat and kcat/Km data for two proteins are collected here from publication PMC3973953.

What is called Km is the concentration of substrate that gives half-maximal velocity. The term kcat denotes the number of substrate molecules converted per active site and unit of time at saturation. As usually defined, the kcat/Km is the turnover number divided by the Michaelis constant.

Substrate in the series: O=[N+]([O-])c1ccc(O[C@@H]2O[C@H](CO)[C@H](O)[C@H](O)[C@H]2O)cc1
The series can be described thus: purified protein. The conditions noted are these: McIlvaine buffer at optimal pH, 37 °C.

B1: A. nidulans rlacA (Aspergillus nidulans FGSC A4) (protein)
chain: VALTHKLNGFTITEHPDAEKRELLQKYVTWDDKSLFINGERIMIFGAEIHPWRLPVPSLWRDILQKVKALGFNCVSFYVDWALLEGKPGEYRAEGSFAWEPFFDAASDLGIYLIARPGPYINAEASGGGFPGWLQRLNGTIRSSDQSYLDATENYVSHIGGLIAKYQITNGGPVILYQPDNEYSGGCCGQEFPNPDYFQYVIDQARRAGIVVPTISNDAWPGGHNAPGTGKGEVDIYGHDNYPLGFDCANPDVWPEGNLPTDYRDLHLEISPSTPYALVEYQVGAFDPWGGPGFEQCAALTGYEFERVFHKNTFSFGVGILSLYMTFGGTNWGNLGHPGGYTSYDYGSPIKETREITREKYSELKLLGNFIKSSPGYLLATPGKLTNTTYTNTADLTVTPLLGNGTGSFFVLRHSDYSSQASTPYKLRLPTSAGQLTIPQLGGSLVLNGRDSKVHLVDYDVAGTKILYSTAEVFTWKKFHDGKVLVLYGGPGEHHELAVSSKAKVKVVEGLGSGISSKQIRGAVVVAWDVEPARRIVQIGDLKIFLLDRNSAYNYWVPQLGTETSIPYATEKAVAASVIVKAGYLVRTAYVKGRDLHLTADFNATTPVEVIGAPKTAENLFINGKKAHHTVDKNGIWSTEVGYSPPKIVLPVLEDLKWKSIDTLPEIQPSYDDSPWPDANLPTKNTIYPLRTPTSLYASDYGFHTGYLLFRGHFTANGRESNFSIQTQGGQAFGSSVWLSGTYLGSWTGDNDYQDYNATYTLPSLKAGKEYVFTVVVDNMGLNENWIVGQDEMKKPRGILNYELSGHEASDITWKLTGNFGGEDYVDKVRGPLNEGGLYAERHGYHQPYPPTKSKDWKSSTPLTGLSKPGISFYTASFDLDIKSGWDVPIYFEFGNSTTPAPAYRVQLYVNGWQYGKYVNNIGPQTRFPVPEGILNYKGTNWVAVTLWALEGSGAKLDSFKLVHGIPVRTALDVEGVELPRYQSRKGVY
On to B1, for which the Km was 1850 ± 210 µM, the kcat was determined as 63.4 ± 0.9 s⁻¹ and the kcat/Km amounted to 34100 ± 1500 M⁻¹ s⁻¹.

B2: A. oryzae β-galactosidase (Aspergillus oryzae RIB40) (protein)
chain: ASIKHRLNGFTILEHPDPAKRDLLQDIVTWDDKSLFINGERIMLFSGEVHPFRLPVPSLWLDIFHKIRALGFNCVSFYIDWALLEGKPGDYRAEGIFALEPFFDAAKEAGIYLIARPGSYINAEVSGGGFPGWLQRVNGTLRSSDEPFLKATDNYIANAAAAVAKAQITNGGPVILYQPENEYSGGCCGVKYPDADYMQYVMDQARKADIVVPFISNDASPSGHNAPGSGTGAVDIYGHDSYPLGFDCANPSVWPEGKLPDNFRTLHLEQSPSTPYSLLEFQAGAFDPWGGPGFEKCYALVNHEFSRVFYRNDLSFGVSTFNLYMTFGGTNWGNLGHPGGYTSYDYGSPITETRNVTREKYSDIKLLANFVKASPSYLTATPRNLTTGVYTDTSDLAVTPLIGDSPGSFFVVRHTDYSSQESTSYKLKLPTSAGNLTIPQLEGTLSLNGRDSKIHVVDYNVSGTNIIYSTAEVFTWKKFDGNKVLVLYGGPKEHHELAIASKSNVTIIEGSDSGIVSTRKGSSVIIGWDVSSTRRIVQVGDLRVFLLDRNSAYNYWVPELPTEGTSPGFSTSKTTASSIIVKAGYLLRGAHLDGADLHLTADFNATTPIEVIGAPTGAKNLFVNGEKASHTVDKNGIWSSEVKYAAPEIKLPGLKDLDWKYLDTLPEIKSSYDDSAWVSADLPKTKNTHRPLDTPTSLYSSDYGFHTGYLIYRGHFVANGKESEFFIRTQGGSAFGSSVWLNETYLGSWTGADYAMDGNSTYKLSQLESGKNYVITVVIDNLGLDENWTVGEETMKNPRGILSYKLSGQDASAITWKLTGNLGGEDYQDKVRGPLNEGGLYAERQGFHQPQPPSESWESGSPLEGLSKPGIGFYTAQFDLDLPKGWDVPLYFNFGNNTQAARAQLYVNGYQYGKFTGNVGPQTSFPVPEGILNYRGTNYVALSLWALESDGAKLGSFELSYTTPVLTGYGNVESPEQPKYEQRKGAY
As to B2, the Km came out at 3020 ± 610 µM, the kcat came to 46.4 ± 1.2 s⁻¹ and the kcat/Km was found to be 14600 ± 600 M⁻¹ s⁻¹.
